Results published in US20230287125A1 (LEPU BIOPHARMA, published 2023).
Positions count from the first letter of the chain named.

B1: Hu67F3G7-8 (antibody, V domains shown)
VH: EVQLVQSGAEVKKPGASVKVSCKASGYIFTDFWVSWVRQAPGQGLEWIGEIYPNSGVSRYNEKFKGRVTMTVDKSISTAYMELSRLRSDDTAVYYCTKYFGYTYWFGYWGQGTLVTVSS
VL: DTVLTQSPSSLSASVGDRVTITCRASKSVSTYMHWYQQKPGKAPKLLIYSASHLESGVPSRFSGSGSGTDFTLTISSLQPEDFATYYCQQSNELPVTFGGGTKVEIK
notes: humanized
B2: Hu67F3G7-10 (antibody, V domains shown)
VH: B1 VH with Q43K
VL: B1 VL
notes: humanized
B3: Hu67F3G7-11 (antibody, V domains shown)
VH: B1 VH with I28T, I48M, T97A, K98R
VL: B1 VL with A43Q
notes: humanized
B4: Hu67F3G7-6 (antibody, V domains shown)
VH: B1 VH with I28T, I48M, T97A, K98R
VL: B1 VL
notes: humanized
B5: Hu67F3G7-4 (antibody, V domains shown)
VH: B1 VH with T97A, K98R
VL: B1 VL with T2I, V3Q, L4M
notes: humanized
B6: Hu67F3G7-9 (antibody, V domains shown)
VH: B1 VH with T97A, K98R
VL: B1 VL
notes: humanized
B7: Hu67F3G7-1 (antibody, V domains shown)
VH: B1 VH with I28T, I48M, T97A, K98R
VL: B1 VL with T2I, V3Q, L4M
notes: humanized
B8: Hu89C10H8-1 (antibody, V domains shown)
VH: EVQLVESGGGLVKPGGSLRLSCAASGFTFSNYWMTWVRQAPGKGLEWVASITNTGSSTFYPDSVKGRFTISRDNAKNSLYLQMNSLRAEDTAVYYCARDTTIAPFDYWGQGTMVTVSS
VL: DIQMTQSPSSLSASVGDRVTITCKASQNLNEYLNWYQQKPGKAPKRLIYKTNTLQAGVPSRFSGSGSGTDYTLTISSLQPEDFATYYCSQYNSGNTFGQGTKLEIK
notes: humanized
B9: Hu89C10H8-6 (antibody, V domains shown)
VH: B8 VH with A97T
VL: B8 VL with V58I
notes: humanized
B10: Hu89C10H8-5 (antibody, V domains shown)
VH: B8 VH
VL: B8 VL with V58I
notes: humanized
B11: Hu89C10H8-3 (antibody, V domains shown)
VH: B8 VH with V37I, A97T
VL: B8 VL
notes: humanized
B12: Hu89C10H8-2 (antibody, V domains shown)
VH: B8 VH with A97T
VL: B8 VL
notes: humanized

Target: T1, human PD-L1-his tag protein (human, UniProt Q9NZQ7 19-238)
T1 construct: also called human PD-L1-His protein; recombinant PD-L1 protein; not shown: his tag
T1 sequence (Q9NZQ7 19-238 limits assumed): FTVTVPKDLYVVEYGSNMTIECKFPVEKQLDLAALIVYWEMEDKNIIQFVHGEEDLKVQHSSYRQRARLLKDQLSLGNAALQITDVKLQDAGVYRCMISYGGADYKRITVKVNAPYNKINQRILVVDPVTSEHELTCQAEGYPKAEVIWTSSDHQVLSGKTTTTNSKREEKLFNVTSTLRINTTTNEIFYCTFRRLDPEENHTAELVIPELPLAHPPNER
Assay: SPR (Biacore), affinity ranking, PDL1-His

B1 and B2 are within 1.5-fold of each other in Kd: 0.0356 nM for the first, 0.0392 nM for the second.

First: B3
Second: B4
The Kd of the first is 1.8-fold lower: 0.0321 nM for the first, 0.0587 nM for the second.

B5 and B6 are within 1.5-fold of each other in Kd: 0.0548 nM for the first, 0.0454 nM for the second.

First: B7
Second: B8
The Kd of the first is 9.4-fold lower: 0.0655 nM for the first, 0.617 nM for the second.

Going from B9 to B10, the Kd rises from 0.122 nM to 0.736 nM (6-fold).

Going from B11 to B12, the Kd rises from 0.0785 nM to 0.133 nM (1.7-fold). The first binds more tightly here.

B1 and B2 are within 1.5-fold of each other in koff: 9.84e-05 s⁻¹ for the first, 9.34e-05 s⁻¹ for the second.

B3 and B4 are within 1.5-fold of each other in koff: 0.000164 s⁻¹ for the first, 0.000118 s⁻¹ for the second.

B5 and B6 are within 1.5-fold of each other in koff: 0.000103 s⁻¹ for the first, 0.0001 s⁻¹ for the second.

Going from B7 to B8, the koff rises from 0.000121 s⁻¹ to 0.000465 s⁻¹ (3.8-fold).

Compared with B9, B10 is 5.8-fold higher in koff: 8.56e-05 s⁻¹ for the first, 0.000494 s⁻¹ for the second.

B11 and B12 are within 1.5-fold of each other in koff: 5.79e-05 s⁻¹ for the first, 8.51e-05 s⁻¹ for the second.

B1 and B2 are within 1.5-fold of each other in kon: 2.76e+06 M⁻¹ s⁻¹ for the first, 2.38e+06 M⁻¹ s⁻¹ for the second.

Compared with B3, B4 is 2.5-fold lower in kon: 5.11e+06 M⁻¹ s⁻¹ for the first, 2.01e+06 M⁻¹ s⁻¹ for the second.

B5 and B6 are within 1.5-fold of each other in kon: 1.88e+06 M⁻¹ s⁻¹ for the first, 2.21e+06 M⁻¹ s⁻¹ for the second.

Compared with B7, B8 is 2.5-fold lower in kon: 1.86e+06 M⁻¹ s⁻¹ for the first, 754000 M⁻¹ s⁻¹ for the second.

B9 and B10 are within 1.5-fold of each other in kon: 701000 M⁻¹ s⁻¹ for the first, 671000 M⁻¹ s⁻¹ for the second.

B11 and B12 are within 1.5-fold of each other in kon: 738000 M⁻¹ s⁻¹ for the first, 641000 M⁻¹ s⁻¹ for the second.

Target: T2, human PD-L1-Fc protein (human, UniProt Q9NZQ7 19-238)
T2 construct: coating antigen of the ELISAs; also called rhPD-L1-Fc; not shown: Fc
T2 sequence (Q9NZQ7 19-238 limits assumed): as above
Assay: ELISA, antibody titrated on coated human PD-L1-Fc, OD 450nm; upper right panel
Protocol: (§1) To evaluate antigen binding activity, the humanized antibodies were subjected to ELISA test. Briefly, microtiter plates were coated with human PD-L1-Fc protein at 0.5 μg/ml in PBS, 100 μl/well at 4° C. overnight, then blocked with 200 μl/well of 1% BSA. Three-fold dilutions of humanized antibodies starting from 10 μg/ml were added to each well and incubated for 1 hour at 37° C. The plates were washed with PBS/Tween and then incubated with mouse-anti-human IgG Fab antibody conjugated with Horse Radish Peroxidase (HRP) for 1 hour at 37° C. After washing, the plates were developed with TMB substrate and analyzed by spectrophotometer at OD 450 nm.

B1 and B2 are within 1.5-fold of each other in EC50: 12.5 ng/mL for the first, 10.1 ng/mL for the second.

B3 and B6 are within 1.5-fold of each other in EC50: 8.25 ng/mL for the first, 8.45 ng/mL for the second.

Target: T2, human PD-L1-Fc protein
Assay: ELISA, antibody titrated on coated human PD-L1-Fc, OD 450nm; upper left panel
Protocol: as §1

B4 and B5 are within 1.5-fold of each other in EC50: 11.8 ng/mL for the first, 10.6 ng/mL for the second.

First: B7
Second: B8
The EC50 of the first is 2-fold higher: 12.5 ng/mL for the first, 6.22 ng/mL for the second.

B9 and B10 are within 1.5-fold of each other in EC50: 6.51 ng/mL for the first, 6.37 ng/mL for the second.

B11 and B12 are within 1.5-fold of each other in EC50: 6.66 ng/mL for the first, 7.28 ng/mL for the second.
